PMC5464768, “ER retention is imposed by COPII protein sorting and attenuated by 4-phenylbutyrate” (eLife, 2017)

What was measured:
[1] = target: Sec24d (full-length, wild type) (H. sapiens) (UniProt O94855)
[2] = target: Sec24d (full-length, wild type) (H. sapiens) (UniProt O94855); remark: listed apart in the source

Sec24d (full-length, wild type) (H. sapiens), sequence (O94855 whole entry): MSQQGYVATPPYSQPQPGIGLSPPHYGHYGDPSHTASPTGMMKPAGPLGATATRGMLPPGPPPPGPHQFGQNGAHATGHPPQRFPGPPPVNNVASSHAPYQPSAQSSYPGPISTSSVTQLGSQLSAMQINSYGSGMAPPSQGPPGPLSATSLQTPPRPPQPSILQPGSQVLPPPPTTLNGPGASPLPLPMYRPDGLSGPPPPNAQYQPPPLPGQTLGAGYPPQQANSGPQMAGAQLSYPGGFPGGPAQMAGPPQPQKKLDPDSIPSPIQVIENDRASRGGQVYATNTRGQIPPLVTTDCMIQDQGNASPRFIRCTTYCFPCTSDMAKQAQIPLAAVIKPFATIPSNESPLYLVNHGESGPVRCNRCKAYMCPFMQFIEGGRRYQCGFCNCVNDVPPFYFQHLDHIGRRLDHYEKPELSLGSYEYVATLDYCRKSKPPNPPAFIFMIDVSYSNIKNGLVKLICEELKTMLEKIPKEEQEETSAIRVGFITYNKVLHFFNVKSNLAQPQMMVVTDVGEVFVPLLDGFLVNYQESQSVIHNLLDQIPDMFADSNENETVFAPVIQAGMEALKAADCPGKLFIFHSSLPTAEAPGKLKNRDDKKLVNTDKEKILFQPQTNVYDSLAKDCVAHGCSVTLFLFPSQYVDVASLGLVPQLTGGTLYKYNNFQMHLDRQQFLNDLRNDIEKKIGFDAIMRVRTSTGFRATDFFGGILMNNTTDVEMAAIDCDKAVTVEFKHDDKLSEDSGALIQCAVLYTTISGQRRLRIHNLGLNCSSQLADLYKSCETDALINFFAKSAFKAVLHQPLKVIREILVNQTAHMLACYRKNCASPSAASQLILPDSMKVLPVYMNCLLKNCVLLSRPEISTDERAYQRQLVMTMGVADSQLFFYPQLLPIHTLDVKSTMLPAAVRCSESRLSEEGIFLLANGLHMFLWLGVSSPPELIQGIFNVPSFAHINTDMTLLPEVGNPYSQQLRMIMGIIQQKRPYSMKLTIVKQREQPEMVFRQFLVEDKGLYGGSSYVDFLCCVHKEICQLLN
p24β1, sequence (P49020 16-196): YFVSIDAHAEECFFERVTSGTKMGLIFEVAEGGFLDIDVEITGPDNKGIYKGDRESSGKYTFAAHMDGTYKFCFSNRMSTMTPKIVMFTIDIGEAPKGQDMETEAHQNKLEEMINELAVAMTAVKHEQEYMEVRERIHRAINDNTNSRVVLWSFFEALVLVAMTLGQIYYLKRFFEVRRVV

reduction of the packaging rate into COPII vesicles (Sec23a/24d) budded in the presence of 10 mM 4-PBA [1] [% reduction]	packaging efficiency into COPII vesicles budded with wild-type COPII (Sec23a/24d), amount in vesicle as % of protein present in starting permeabilized cells; CHO-LDLR G544V cells [2] [%]	packaging efficiency into COPII vesicles budded with wild-type COPII (Sec23a/24d), amount in vesicle as % of protein present in starting permeabilized cells; wild-type CHO cells [2] [%]	Substance
50	4.5	–	ERGIC-53 (natural protein)
–	8.7	10.9	p24α2 (natural protein)
50	6.4	6.4	p24α3 (natural protein)
50	10.6	–	p24β1 (from UniProt P49020 16-196) (natural protein)
–	7.7	4.6	p24δ1 (natural protein)
